# From article PMC11695720 (Nature Communications, 2025)
# B1: EY6A antibody (antibody, V domains shown)
# VH: EVQLVESGGGVVQPGRSLRLSCAASAFTFSSYDMHWVRQAPGKGLEWVAVISYDGSNKYYADSVKGRFTISRDNSKNTLYLQMNSLRAEDTAVYYCAKDGGKLWVYYFDYWGQGTLVTVSS
# VL: not shown
# notes: source: ExpiCHO, transfected, purified (MabSelect SuRe); copies: 2 + 2
# B2: FI-3A antibody (antibody, V domains shown)
# VH: EVQLLESGGGLIQPGGSLRLSCAASGFTVSSNYMSWVRQAPGKGLEWVSVIYSGGSTYYADSVKGRFTISRDNSKNTLYLQMNSLRAEDTAVYYCARDHVRPGMNIWGQGTMVTVSS
# VL: not shown
# notes: as for B1
# B3: FD-5D antibody (antibody, V domains shown)
# VH: EVQLVESGGGLVQPGGSLRLSCAASGFTFSSYSMNWVRQAPGKGLEWVSYISSSSSTIYYADSVKGRFTISRDNAKNSLYLQMNSLRAEDTAVYYCASPGGITAAGTSVLFGYYGMDVWGQGTTVTVSS
# VL: not shown
# notes: as for B1
# B4: REGN10987 therapeutic antibody (antibody, V domains shown)
# VH: QVQLVESGGGVVQPGRSLRLSCAASGFTFSNYAMYWVRQAPGKGLEWVAVISYDGSNKYYADSVKGRFTISRDNSKNTLYLQMNSLRTEDTAVYYCASGSDYGDYLLVYWGQGTLVTVSS
# VL: QSALTQPASVSGSPGQSITISCTGTSSDVGGYNYVSWYQQHPGKAPKLMIYDVSKRPSGVSNRFSGSKSGNTASLTISGLQSEDEADYYCNSLTSISTWVFGGGTKLTVL
# notes: as for B1
# B5: FD-11A IgG1 antibody (antibody, V domains shown)
# VH: EVQLVESGGGVVQPGRSLRLSCAASGFTFSSYGMHWVRQAPGKGLEWVAVIWYDGSNKYYADSVKGRFTISRDNSKNTLYLQMNSLRAEDTAVYYCAKGPDILTGYYNYYYYGMDVWGQGTMVTVSS
# VL: QSVLTQPPSVSGAPGQRVTISCTGSSSNIGAGYDVHWYQQLPGTAPKLLIYGNSNRPSGVPDRFSGSKSGTSASLAITGLQAEDEADYYCQSYDSSLSGFYVVFGGGTKLTVL
# notes: also called IgG1 FD-11A; source: ExpiCHO, transfected, purified (MabSelect SuRe); copies: 2 + 2
# Experiments:
# [1] = biological target: Soluble monovalent SARS-CoV-2 RBD (RBD-H) (SARS-CoV-2 (Wuhan, assumed), UniProt P0DTC2); experiment: SPR; settings: both partners purified
# [2] = biological target: Biotinylated SARS-CoV-2 (Wuhan) RBD (SARS-CoV-2 (Wuhan), UniProt P0DTC2, biotin (EZ-Link Sulfo-NHS-LC-biotin per p-0040; Lys15 biotinylation site within the N-terminal AviTag per fig-0003 and p-0075)); experiment: SPR; settings: both partners purified
Binder,binding result [1],binding result [2],Kd [2] [µM]
B1,binds,binds,
B2,binds,binds,
B3,binds,binds,
B4,,binds,
B5,,,1.23
